The values that follow come from publication PMC4490372, “Architecture of TFIIIC and its role in RNA polymerase III pre-initiation complex assembly” (Nature Communications, 2015).

Residue numbers refer to the chain shown, from its start.

The target in assay [1] is T1, τ95 (Tfc1), τA subunit of endogenous S. cerevisiae TFIIIC (S. cerevisiae, UniProt P32367 1-649).
T1 construct: τ95 (Tfc1), subunit of S. cerevisiae TFIIIC, endogenous subunit in the purified complex; source: endogenous, purified from S. cerevisiae strain SC2342 as part of TFIIIC (TAP tag on τ60)
T1 sequence (looked up): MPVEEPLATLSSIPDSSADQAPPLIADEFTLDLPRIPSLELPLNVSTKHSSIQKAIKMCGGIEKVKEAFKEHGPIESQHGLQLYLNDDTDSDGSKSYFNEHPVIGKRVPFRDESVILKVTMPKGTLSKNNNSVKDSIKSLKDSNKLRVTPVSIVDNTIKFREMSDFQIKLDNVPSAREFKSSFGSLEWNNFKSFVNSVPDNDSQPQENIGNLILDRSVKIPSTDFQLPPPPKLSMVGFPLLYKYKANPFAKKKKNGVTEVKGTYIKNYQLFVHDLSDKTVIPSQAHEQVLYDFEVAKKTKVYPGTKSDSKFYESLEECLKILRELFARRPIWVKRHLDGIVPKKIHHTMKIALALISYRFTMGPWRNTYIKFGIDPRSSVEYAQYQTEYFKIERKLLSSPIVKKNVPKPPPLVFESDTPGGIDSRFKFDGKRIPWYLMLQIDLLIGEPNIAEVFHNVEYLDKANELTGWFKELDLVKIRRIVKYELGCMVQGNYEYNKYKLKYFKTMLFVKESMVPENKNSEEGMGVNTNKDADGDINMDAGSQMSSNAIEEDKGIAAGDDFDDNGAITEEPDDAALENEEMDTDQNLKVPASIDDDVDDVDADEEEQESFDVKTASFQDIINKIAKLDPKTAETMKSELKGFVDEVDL
Briefly: cross-linking; XL-MS: purified endogenous TFIIIC (30 μg, 1 μg/μl) cross-linked with H12/D12 DSS to 2 mM, 40 min at 37 °C; ld-score >25. Conditions: both partners purified.

Assay [2] concerns the target T2, τ131 (123–566) E497K (S. cerevisiae, UniProt P33339 123-566, E497K).
T2 construct: source: E. coli, purified by the same method as the wild type; not shown: His6, N-terminal, cleaved
T2 sequence (looked up): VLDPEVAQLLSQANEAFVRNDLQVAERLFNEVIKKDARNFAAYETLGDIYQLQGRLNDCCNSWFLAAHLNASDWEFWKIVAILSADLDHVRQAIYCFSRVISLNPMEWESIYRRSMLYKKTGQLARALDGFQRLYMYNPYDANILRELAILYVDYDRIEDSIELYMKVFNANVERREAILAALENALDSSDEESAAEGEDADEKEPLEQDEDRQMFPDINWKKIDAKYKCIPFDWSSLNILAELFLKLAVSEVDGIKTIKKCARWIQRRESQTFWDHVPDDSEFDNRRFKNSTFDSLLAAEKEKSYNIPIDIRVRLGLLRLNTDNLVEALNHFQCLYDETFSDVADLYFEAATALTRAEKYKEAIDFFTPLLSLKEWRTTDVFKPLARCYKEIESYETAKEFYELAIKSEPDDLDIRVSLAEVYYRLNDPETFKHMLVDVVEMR
Briefly: pull-down; 15 μg GST-τ138 (641–693) on Glutathione Sepharose 4B; 900 nM wild-type or mutant τ131; 50 mM Tris pH 7.5, 150 mM NaCl, 2 mM DTT, 0.1% Tween20; 4 °C, 4 h. Conditions: both partners purified.

For assay [3], the target named is T3, τ131 (123–566) E472K (S. cerevisiae, UniProt P33339 123-566, E472K).
T3 construct: source: E. coli, purified by the same method as the wild type; not shown: His6, N-terminal, cleaved
T3 sequence (looked up): T2 sequence (looked up) with E350K, K375E
Described as above. Particulars: both partners purified.

Assay [4] has as its target T4, τ131 (123–566) E498K (S. cerevisiae, UniProt P33339 123-566, E498K).
T4 construct: source: E. coli, purified by the same method as the wild type; not shown: His6, N-terminal, cleaved
T4 sequence (looked up): T2 sequence (looked up) with K375E, E376K
The description is as above. Conditions: both partners purified.

Assay [5] concerns the target T5, GST-tagged τ131 (123–566) E497K (S. cerevisiae, UniProt P33339 123-566, E497K).
T5 construct: source: E. coli BL21 (DE3) Gold, purified (GST column, S200 SEC)
T5 sequence (looked up): T2 sequence (looked up)
In words: pull-down; 15 μg GST-tagged τ131 on Glutathione Sepharose 4B; 300 nM τ138 or Bdp1, or 1 μM Brf1–TBP; 50 mM Tris pH 7.5, 150 mM NaCl, 2 mM DTT, 0.1% Tween20; 4 °C, 4 h. Particulars: both partners purified.

Assay [6] addresses T6, GST-tagged τ131 (123–566) E498K (S. cerevisiae, UniProt P33339 123-566, E498K).
T6 construct: source: E. coli BL21 (DE3) Gold, purified (GST column, S200 SEC)
T6 sequence (looked up): T2 sequence (looked up) with K375E, E376K
The assay is described as above. Particulars: both partners purified.

Assay [7] addresses T7, GST-tagged τ131 (123–566) E472K (S. cerevisiae, UniProt P33339 123-566, E472K).
T7 construct: source: E. coli BL21 (DE3) Gold, purified (GST column, S200 SEC)
T7 sequence (looked up): T2 sequence (looked up) with E350K, K375E
Described as above. Conditions: both partners purified.

In assay [8] the target is T8, τ131 (123–566) E498K (S. cerevisiae, UniProt P33339 123-566, E498K).
T8 sequence: T2 sequence (looked up) with K375E, E376K
Briefly: ITC. In general terms: In ITC the heat of successive injections is recorded.

The target in assay [9] is T9, τ131 (123–566) E497K (S. cerevisiae, UniProt P33339 123-566, E497K).
T9 sequence: T2 sequence (looked up)
In words: ITC.

In assay [10] the target is T10, τ131 (123–566) E472K (S. cerevisiae, UniProt P33339 123-566, E472K).
T10 sequence: T2 sequence (looked up) with E350K, K375E
In words: ITC.

The target in assay [11] is T2, τ131 (123–566) E497K. Briefly: ITC; MicroCal ITC200; 15 μM τ138 in the cell, 150 μM τ131 in the syringe; 20 mM Tris pH 7.5, 150 mM NaCl, 2 mM β-mercaptoethanol; 25 °C. Conditions: both partners purified.
Assay [12] concerns the target T3, τ131 (123–566) E472K. The description is as above. Particulars: both partners purified.
Assay [13] deals with T11, τ131 (123–566), TPR array, wild type (S. cerevisiae, UniProt P33339 123-566).
T11 construct: also called τ131 TPR array; source: E. coli BL21 Star (DE3) pRARE, purified (Ni-NTA, TEV cleavage, S200 SEC); not shown: His6, N-terminal, cleaved
T11 sequence (looked up): T2 sequence (looked up) with K375E
Described as above. Conditions: both partners purified.

The target of assay [14] is T4, τ131 (123–566) E498K. Described as above. Conditions: both partners purified.

Broadly, the Kd is the constant that tells how readily two partners part at equilibrium. Higher therefore signals weaker binding.

B1: τ55 (Tfc7), τA subunit of endogenous S. cerevisiae TFIIIC (natural protein, UniProt Q12415 1-435, looked up)
chain: MVVNTIYIARHGYRSNWLPEGPYPDPLTGIDSDVPLAEHGVQQAKELAHYLLSLDNQPEAAFASPFYRCLETVQPIAKLLEIPVYLERGIGEWYRPDRKPVIPVPAGYEILSKFFPGVISQEWDSTLTPNEKGETEQEMYMRFKKFWPLFIERVEKEYPNVECILLVTHAASKIALGMSLLGYDNPRMSLNENGDKIRSGSCSLDKYEILKKSYDTIDETDDQTSFTYIPFSDRKWVLTMNGNTEFLSSGEEMNWNFDCVAEAGSDADIKKRQMTKKTSSPIPEADDQTEVETVYISVDIPSGNYKERTEIAKSAILQYSGLETDAPLFRIGNRLYEGSWERLVGTELAFPNAAHVHKKTAGLLSPTEENETTNAGQSKGSSTANDPNIQIQEEDVGLPDSTNTSRDHTGDKEEVQSEKIYRIKERIVLSNVRPM
notes: τ55 (Tfc7), subunit of S. cerevisiae TFIIIC, endogenous subunit in the purified complex; source: endogenous, purified from S. cerevisiae strain SC2342 as part of TFIIIC (TAP tag on τ60)
Turning to B1, in assay [1], the binding result is “binds”.

B2: GST-τ138 (641–693) (domain or fragment, S. cerevisiae, UniProt P34111 641-693, looked up)
chain: SKKATFTDVIHDTEIYFFDQTEKNRFHRGKKSVERIRKFQNRQKNAKIKASDD
notes: also called GST-tagged τ138; source: E. coli BL21 (DE3) Gold, purified (GST column, S200 SEC)
In the case of B2, the binding result in the assay with τ131 (123–566) E497K [2], with τ131 (123–566) E472K [3] and in the assay with τ131 (123–566) E498K [4] was “binds” in each case.

B3: τ138 (546–693), eWH-τIR (domain or fragment, S. cerevisiae, UniProt P34111 546-693, looked up)
chain: SARSLRSLQRQRAILKVMNTIGGVAYLREQFYESVSKYMGSTTTLDKKTVRGDVDLMVESEKLGARTEPVSGRKIIFLPTVGEDAIQRYILKEKDSKKATFTDVIHDTEIYFFDQTEKNRFHRGKKSVERIRKFQNRQKNAKIKASDD
notes: the cloning of this construct is not described; also called τ138 (eWH-τIR); central region of τ138; source: purified; expression of this construct not described
In the case of B3, the binding result (in assay [5]; in [6]; in assay [7]; with τ131 (123–566) E497K [11]; with τ131 (123–566) E472K [12]; with τ131 (123–566) E498K [14]) was “binds” each time. Moreover, the dissociation constant Kd with τ131 (123–566) E498K [8] is 971 nM; with τ131 (123–566) E497K [9] it was 99 nM; with τ131 (123–566) E472K [10], 415 nM; in [13], ~100 nM.
